Data reported in IntAct's records for PubMed 7759517.

B1: Dual specificity mitogen-activated protein kinase kinase 5 (Homo sapiens), Q13163 (parent)
chain: MLWLALGPFPAMENQVLVIRIKIPNSGAVDWTVHSGPQLLFRDVLDVIGQVLPEATTTAFEYEDEDGDRITVRSDEEMKAMLSYYYSTVMEQQVNGQLIEPLQIFPRACKPPGERNIHGLKVNTRAGPSQHSSPAVSDSLPSNSLKKSSAELKKILANGQMNEQDIRYRDTLGHGNGGTVYKAYHVPSGKILAVKVILLDITLELQKQIMSELEILYKCDSSYIIGFYGAFFVENRISICTEFMDGGSLDVYRKMPEHVLGRIAVAVVKGLTYLWSLKILHRDVKPSNMLVNTRGQVKLCDFGVSTQLVNSIAKTYVGTNAYMAPERISGEQYGIHSDVWSLGISFMELALGRFPYPQIQKNQGSLMPLQLLQCIVDEDSPVLPVGEFSEPFVHFITQCMRKQPKERPAPEELMGHPFIVQFNDGNAAVVSMWVCRALEERRSQQGPP

Variants of: B1
Conditions: with mk07_human MAPK7, Q13164
Chain of mk07_human MAPK7, Q13164 (Q13164 whole entry, looked up): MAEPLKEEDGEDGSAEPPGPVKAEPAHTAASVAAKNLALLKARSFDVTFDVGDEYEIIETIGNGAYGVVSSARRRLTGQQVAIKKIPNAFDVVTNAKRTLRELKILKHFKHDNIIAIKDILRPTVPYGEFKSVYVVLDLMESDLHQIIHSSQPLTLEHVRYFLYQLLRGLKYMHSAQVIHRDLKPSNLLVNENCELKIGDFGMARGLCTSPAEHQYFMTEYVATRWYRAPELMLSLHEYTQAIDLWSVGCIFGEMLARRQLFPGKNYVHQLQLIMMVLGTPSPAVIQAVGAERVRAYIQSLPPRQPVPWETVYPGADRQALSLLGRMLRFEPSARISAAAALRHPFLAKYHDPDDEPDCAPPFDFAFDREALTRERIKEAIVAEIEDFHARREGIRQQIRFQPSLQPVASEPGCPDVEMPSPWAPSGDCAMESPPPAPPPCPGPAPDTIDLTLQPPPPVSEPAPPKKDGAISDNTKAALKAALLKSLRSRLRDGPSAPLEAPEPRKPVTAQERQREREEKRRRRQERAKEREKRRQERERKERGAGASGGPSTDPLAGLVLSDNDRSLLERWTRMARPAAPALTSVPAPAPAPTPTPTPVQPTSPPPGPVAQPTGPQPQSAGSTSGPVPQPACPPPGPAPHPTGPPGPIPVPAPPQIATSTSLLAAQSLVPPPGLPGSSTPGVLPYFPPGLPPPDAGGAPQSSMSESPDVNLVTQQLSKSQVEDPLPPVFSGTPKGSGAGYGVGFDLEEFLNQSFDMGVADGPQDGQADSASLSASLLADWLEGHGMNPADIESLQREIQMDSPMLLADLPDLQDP

Row | effect of a mutation on the interaction | Variant
1 | increasing interaction | MLWLALGPFPAMENQVLVIRIKIPNSGAVDWTVHSGPQLLFRDVLDVIGQVLPEATTTAFEYEDEDGDRITVRSDEEMKAMLSYYYSTVMEQQVNGQLIEPLQIFPRACKPPGERNIHGLKVNTRAGPSQHSSPAVSDSLPSNSLKKSSAELKKILANGQMNEQDIRYRDTLGHGNGGTVYKAYHVPSGKILAVMVILLDITLELQKQIMSELEILYKCDSSYIIGFYGAFFVENRISICTEFMDGGSLDVYRKMPEHVLGRIAVAVVKGLTYLWSLKILHRDVKPSNMLVNTRGQVKLCDFGVSTQLVNSIAKTYVGTNAYMAPERISGEQYGIHSDVWSLGISFMELALGRFPYPQIQKNQGSLMPLQLLQCIVDEDSPVLPVGEFSEPFVHFITQCMRKQPKERPAPEELMGHPFIVQFNDGNAAVVSMWVCRALEERRSQQGPP [K195M]

Variants of: B1
Conditions: with mk07_human MAPK7, Q13164
Remark: another data set of the same source

Row | effect of a mutation on the interaction | Variant
2 | increasing interaction | MLWLALGPFPAMENQVLVIRIKIPNSGAVDWTVHSGPQLLFRDVLDVIGQVLPEATTTAFEYEDEDGDRITVRSDEEMKAMLSYYYSTVMEQQVNGQLIEPLQIFPRACKPPGERNIHGLKVNTRAGPSQHSSPAVSDSLPSNSLKKSSAELKKILANGQMNEQDIRYRDTLGHGNGGTVYKAYHVPSGKILAVKVILLDITLELQKQIMSELEILYKCDSSYIIGFYGAFFVENRISICTEFMDGGSLDVYRKMPEHVLGRIAVAVVKGLTYLWSLKILHRDVKPSNMLVNTRGQVKLCDFGVSTQLVNAIAKAYVGTNAYMAPERISGEQYGIHSDVWSLGISFMELALGRFPYPQIQKNQGSLMPLQLLQCIVDEDSPVLPVGEFSEPFVHFITQCMRKQPKERPAPEELMGHPFIVQFNDGNAAVVSMWVCRALEERRSQQGPP [S311A;T315A]
